Test results taken from publication PMC9645627, “Ydj1 interaction at nucleotide-binding-domain of yeast Ssa1 impacts Hsp90 collaboration and client maturation” (PLOS Genetics, 2022).

B1: Ssa1-D158N, purified (natural protein)
chain: not shown
notes: Ssa1, cytosolic Hsp70 of S. cerevisiae, with D158N; the methods say that the tag was removed; not shown: His6, N-terminal, cleaved
B2: Ssa1-T175N, purified (natural protein)
chain: not shown
notes: Ssa1, cytosolic Hsp70 of S. cerevisiae, with T175N; the methods say that the tag was removed; not shown: His6, N-terminal, cleaved
B3: His6-Ydj1 (natural protein, S. cerevisiae, UniProt P25491 1-409, looked up)
chain: MVKETKFYDILGVPVTATDVEIKKAYRKCALKYHPDKNPSEEAAEKFKEASAAYEILSDPEKRDIYDQFGEDGLSGAGGAGGFPGGGFGFGDDIFSQFFGAGGAQRPRGPQRGKDIKHEISASLEELYKGRTAKLALNKQILCKECEGRGGKKGAVKKCTSCNGQGIKFVTRQMGPMIQRFQTECDVCHGTGDIIDPKDRCKSCNGKKVENERKILEVHVEPGMKDGQRIVFKGEADQAPDVIPGDVVFIVSERPHKSFKRDGDDLVYEAEIDLLTAIAGGEFALEHVSGDWLKVGIVPGEVIAPGMRKVIEGKGMPIPKYGGYGNLIIKFTIKFPENHFTSEENLKKLEEILPPRIVPAIPKKATVDECVLADFDPAKYNRTRASRGGANYDSDEEEQGGEGVQCASQ
notes: Ydj1, Hsp40 co-chaperone of S. cerevisiae; His6 is named and used for capture in the pull-down; also called Hsp40
B4: Ssa1 (wt), purified (natural protein)
chain: not shown
notes: Ssa1, cytosolic Hsp70 of S. cerevisiae; the methods say that the tag was removed; also called wt-Ssa1; wt Ssa1; not shown: His6, N-terminal, cleaved

What was measured:
His6-Ydj1 = target: B3; assay: cell-based or functional assay
Hsp82, purified [1] = target: T1, Hsp82, purified (S. cerevisiae, UniProt P02829 1-709); assay: cell-based or functional assay
Hsp82, purified [2] = target: T1, Hsp82, purified; assay: BLI; Octet K2, 30°C; Hsp82 immobilised on AR2G biosensors by amine coupling; Hsp70 1.0 uM as analyte in 25 mM Hepes pH 7.4, 150 mM NaCl, 20 mM MgCl2, 20 mM KCl, 0.1% Tween-20, 0.05% Triton X-100, 1 mM ATP; association and dissociation 200 s each; details: both partners purified
Ssa1 (wt), purified = target: B4; assay: BLI; Ssa1, Ssa2, Ssa3 and Ssa4 with Ydj1; set-up not told here (as in ref. 26)
Ssa1-D158N, purified = target: B1; assay: BLI; Ydj1 (0.75 uM) immobilised on the biosensor, Ssa Hsp70 at varying concentrations as analyte, with 5 mM ATP; details: both partners purified
Ssa1-T175N, purified = target: B2; assay: as above; details: both partners purified
Chain of Ssa1-T175N, purified (P10591 whole entry T175N): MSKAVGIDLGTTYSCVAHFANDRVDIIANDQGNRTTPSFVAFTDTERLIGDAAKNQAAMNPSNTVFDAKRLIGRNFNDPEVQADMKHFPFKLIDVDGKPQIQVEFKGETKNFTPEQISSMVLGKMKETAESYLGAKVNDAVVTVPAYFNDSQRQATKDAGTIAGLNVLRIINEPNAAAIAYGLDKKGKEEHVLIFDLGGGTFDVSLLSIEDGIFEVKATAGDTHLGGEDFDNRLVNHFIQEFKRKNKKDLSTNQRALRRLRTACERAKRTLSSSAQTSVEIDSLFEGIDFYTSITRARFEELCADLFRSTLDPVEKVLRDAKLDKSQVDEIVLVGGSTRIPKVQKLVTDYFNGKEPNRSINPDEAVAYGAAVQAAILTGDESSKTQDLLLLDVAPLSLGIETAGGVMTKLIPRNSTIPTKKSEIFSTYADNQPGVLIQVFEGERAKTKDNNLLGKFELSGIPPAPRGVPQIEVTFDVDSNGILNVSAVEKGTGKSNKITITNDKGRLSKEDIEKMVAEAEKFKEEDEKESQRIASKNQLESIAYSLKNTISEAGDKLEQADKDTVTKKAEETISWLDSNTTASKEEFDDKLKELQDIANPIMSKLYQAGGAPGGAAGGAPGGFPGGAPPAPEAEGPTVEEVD

T1 sequence (P02829 whole entry): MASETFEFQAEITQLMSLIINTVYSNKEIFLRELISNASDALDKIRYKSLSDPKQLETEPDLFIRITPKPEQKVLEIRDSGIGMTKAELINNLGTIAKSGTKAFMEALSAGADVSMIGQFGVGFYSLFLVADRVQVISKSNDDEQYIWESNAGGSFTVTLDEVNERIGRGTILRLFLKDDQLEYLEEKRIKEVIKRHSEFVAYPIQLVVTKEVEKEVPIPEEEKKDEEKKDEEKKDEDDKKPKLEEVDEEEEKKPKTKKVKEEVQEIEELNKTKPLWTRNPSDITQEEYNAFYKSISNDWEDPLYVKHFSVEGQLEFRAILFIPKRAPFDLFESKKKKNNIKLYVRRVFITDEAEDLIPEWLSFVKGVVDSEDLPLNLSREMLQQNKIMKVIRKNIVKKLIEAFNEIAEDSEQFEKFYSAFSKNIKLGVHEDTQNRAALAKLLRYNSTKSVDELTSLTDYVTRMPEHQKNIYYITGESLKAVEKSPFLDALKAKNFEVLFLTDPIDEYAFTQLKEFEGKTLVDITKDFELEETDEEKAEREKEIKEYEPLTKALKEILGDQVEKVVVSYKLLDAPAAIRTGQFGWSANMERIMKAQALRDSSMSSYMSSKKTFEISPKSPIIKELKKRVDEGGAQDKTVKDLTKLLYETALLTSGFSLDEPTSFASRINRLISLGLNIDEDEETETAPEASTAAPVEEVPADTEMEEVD
Chain of Ssa1-D158N, purified (P10591 whole entry D158N): as the sequence (P10591 whole entry T175N) above, with D158N, N175T counted along it
Chain of Ssa1 (wt), purified (P10591 whole entry): as the sequence (P10591 whole entry T175N) above, with N175T counted along it

**Q.** For B1, which “refolding of heat-denatured luciferase by Hsp70 with Ydj1, fold, time course to 30 min (wt Ssa1:Ydj1: 30-fold)” value (His6-Ydj1) is on record?
**A.** ~60 fold

**Q.** And the “fold increase in luciferase refolding upon addition of Hsp90 (Hsp82) and Sti1 to a reaction with Ydj1 and Hsp70 (wt Ssa1: 4)” value (Hsp82, purified [1])?
**A.** 2 fold

**Q.** And the “fold by which the BLI response of wt-Ssa1 at equilibrium is higher than that of this mutant” value (Hsp82, purified [2])?
**A.** ~2 fold

**Q.** With B2 as the binder, how does the “refolding of heat-denatured luciferase by Hsp70 with Ydj1, fold, time course to 30 min (wt Ssa1:Ydj1: 30-fold)” value (His6-Ydj1) read?
**A.** ~60 fold

**Q.** And the “fold increase in luciferase refolding upon addition of Hsp90 (Hsp82) and Sti1 to a reaction with Ydj1 and Hsp70 (wt Ssa1: 4)” value (Hsp82, purified [1])?
**A.** 2 fold

**Q.** What about the “fold by which the BLI response of wt-Ssa1 at equilibrium is higher than that of this mutant” value (Hsp82, purified [2]) of the same binder?
**A.** ~4 fold

**Q.** Which results are given for B3?
**A.** binding result (Ssa1 (wt), purified): binds; binding result (Ssa1-D158N, purified): binds; binding result (Ssa1-T175N, purified): binds

**Q.** Does B4 bind (Hsp82, purified [2])?
**A.** binds
